Conditions: Homo sapiens, pH 7.4, Potassium phosphate buffer, NaCl, transition: 2, reversible: yes, structure 1TEN; for Tm / change of melting temperature, mutant - wild type (higher = more stable): Thermal, DSC

| Substance | Tm | change of melting temperature, mutant - wild type (higher = more stable) | denaturant m value (23 °C, GdnSCN, fluorescence) | denaturant midpoint (higher = more stable) (23 °C, GdnSCN, fluorescence) | unfolding free energy (23 °C, GdnSCN, fluorescence) |
| --- | --- | --- | --- | --- | --- |
| Tenascin, P24821 A885V | 59.8 °C | 1.1 °C | – | – | – |
| Tenascin, P24821 D850K | 63.7 °C | 5 °C | – | – | – |
| Tenascin, P24821 E887I | 69.9 °C | 11.2 °C | – | – | – |
| Tenascin, P24821 E887I T890K | 74.9 °C | 16.2 °C | – | – | – |
| Tenascin, P24821 E887I T890K D850K | 80.5 °C | 21.8 °C | – | – | – |
| Tenascin, P24821 E887I T890K D850K I833F | 82.6 °C | 23.9 °C | – | – | – |
| Tenascin, P24821 I833F | 61 °C | 2.3 °C | – | – | – |
| Tenascin, P24821 L820K | 56.7 °C | -2 °C | – | – | – |
| Tenascin, P24821 Q808K | 59.9 °C | 1.2 °C | – | – | – |
| Tenascin, P24821 T888C E870C I833C S875C | 80.6 °C | – | 4.17 kcal/mol/M | 1.79 M | 7.44 kcal/mol |
| Tenascin, P24821 T890K | 63.9 °C | 5.2 °C | – | – | – |
| Tenascin, P24821 V811C I821C | 50.6 °C | – | – | – | – |

Source: FireProtDB (doi:10.1093/protein/gzu024)
